Consider 37 molecules from patent US20100004432, “APTAMER AGAINST MIDKINE AND USE THEREOF” (RIBOMIC INC., published 2010).

Data set [1] concerns the target T1, midkine (full-length) (Homo sapiens, UniProt P21741 P21741:23-143).
T1 sequence: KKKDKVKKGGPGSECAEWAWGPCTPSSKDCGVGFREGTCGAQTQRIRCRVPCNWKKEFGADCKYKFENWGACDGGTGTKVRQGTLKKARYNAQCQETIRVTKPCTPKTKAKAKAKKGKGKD
The experiment in a line: cell_activity; 500 nM RNA. Conditions: tags: expressed in yeast. How it is done: Chem. 276 (19), 15868-15875, 2001). […] 30 μL of 1.5 μM midkine was applied to the outer surface of the membrane of Chemotaxicell (membrane pore diameter 8 μm, manufactured by Kurabo) to immobilize the midkine to the outer surface of the membrane. The midkine-immobilized Chemotaxicell was placed on a 24-well culture plate containing 500 μL of a medium (supplemented with 0.3% bovine serum albumin, Dulbecco's Modified Eagle's medium) supplemented with each RNA aptamer added thereto at 100 nM. 200 μL of UMR106 cells were placed in the inner layer of the Chemotaxicell chamber at a density of 1×10⁶ cells/mL, and cultured at 37° C. for 4 hours. The cells remaining in the inner layer of the Chemotaxicell chamber were removed, and the cells that had infiltrated and adhered to the midkine-applied surface were fixed with methanol. The Chemotaxicell chamber was immersed in a 1% aqueous solution of Crystal Violet for 30 minutes to stain the cells. After the Chemotaxicell chamber was washed with distilled water and dried, the pigment was extracted with a mixed solution of 200 μL of 1% SDS and 1% triton X100. 150 μL of the extract was transferred to a 96-well microplate, and its absorbance at 590 nm was determined.
(§1) The aptamer shown by SEQ ID NO:4 is 77 nucleotides long, having the 2′ position of the ribose of the pyrimidine nucleotide thereof fluoro-substituted. To enable the chemical synthesis, to reduce the toxicity, and to improve the stability in the blood, miniaturization and stabilization of this aptamer were performed. The operations of miniaturization and stabilization were performed on the basis of the secondary structure estimated by the MFOLD program, and the activity was evaluated by a cell migration inhibition experiment. In the cell migration inhibition experiment, the RNA concentration was 100 nM or 500 nM. Since some errors occur in experimental results depending on cell condition, a previously assayed sample was included as a positive control in each measurement.

Data set [2] deals with T1, midkine (full-length). Put plainly: cell_activity; 500 nM RNA. Conditions: tags: expressed in yeast. The procedure: 30 μL of 1.5 μM midkine was applied to the outer surface of the membrane of Chemotaxicell (membrane pore diameter 8 μm, manufactured by Kurabo) to immobilize the midkine to the outer surface of the membrane. The midkine-immobilized Chemotaxicell was placed on a 24-well culture plate containing 500 μL of a medium (supplemented with 0.3% bovine serum albumin, Dulbecco's Modified Eagle's medium) supplemented with each RNA aptamer added thereto at 100 nM. 200 μL of UMR106 cells were placed in the inner layer of the Chemotaxicell chamber at a density of 1×10⁶ cells/mL, and cultured at 37° C. for 4 hours. The cells remaining in the inner layer of the Chemotaxicell chamber were removed, and the cells that had infiltrated and adhered to the midkine-applied surface were fixed with methanol. The Chemotaxicell chamber was immersed in a 1% aqueous solution of Crystal Violet for 30 minutes to stain the cells. After the Chemotaxicell chamber was washed with distilled water and dried, the pigment was extracted with a mixed solution of 200 μL of 1% SDS and 1% triton X100. 150 μL of the extract was transferred to a 96-well microplate, and its absorbance at 590 nm was determined.
as §1, with “NO:5” for “NO:4”, “2′-position” for “2′ position”, “nucleotide” for “nucleotide thereof”, “The RNA concentration in” for “In”, “experiment” for “experiment, the RNA concentration”
This is another data set of the same source.

B1: SEQ ID NO:12 (ssRNA)
RNA: GGGAGAGGAGAAGAGGAACGCUGCACGAGGAGUAGCCGGAAAGAAGGCGGCGUGCAGC
modifications: 2'-F pyrimidines
On to B1, for which the activity with midkine (full-length) [1] was 100 % of SEQ 4 inhibition.

B2: SEQ ID NO:7 (ssRNA)
RNA: GGGAACGUGCUCUGUACGAGGAGUAGCCGGAAAGAAGGCGGUGUGUAGAGGACAGGAAUGAGGA
modifications: 2'-F pyrimidines
As to B2, the activity with midkine (full-length) [1] was 91 % of SEQ 4 inhibition.

B3: SEQ ID NO:51 (ssRNA)
RNA: GGGAAGGAGAGAGGAAGUGCACAGGGGUUGGUGUCGGGUGCACAGUAUAAG
modifications: 2'-F pyrimidines
Consider B3, for which the activity with midkine (full-length) [2] was 100 % of SEQ 40 inhibition.

B4: SEQ ID NO:52 (ssRNA)
RNA: GGAAGGAGAAGAGGAAGUGCACAGGGGUUGGUGUCGGGUGCACAGUAUAAG
modifications: 2'-F pyrimidines
For the molecule B4, the activity with midkine (full-length) [2] was 100 % of SEQ 40 inhibition.

B5: SEQ ID NO:53 (ssRNA)
RNA: GGGAAGGAAAGAGGAAGUGCACAGGGGUUGGUGUCGGGUGCACAGUAUAAG
modifications: 2'-F pyrimidines
As to B5, in the data set with midkine (full-length) [2], the activity is 100 % of SEQ 40 inhibition.

Consider GGGAGAGGAACGCUGCACGAGGAGUAGCCGGAAAGAAGGCGGCGUGCAGC (ssRNA, 2'-F pyrimidines) [SEQ ID NO:13], for which, in the data set with midkine (full-length) [1], the activity was 100 % of SEQ 4 inhibition. On to GGGAGAGGAGAAGAGGAAGUGUGCACAGGGGUGGUGUCGGGUGCAUAC (ssRNA, 2'-F pyrimidines) [SEQ ID NO:47], for which, in the data set with midkine (full-length) [2], the activity is 84 % of SEQ 40 inhibition. In the case of GGGAGAGGAGAAGAGGAAGUGUGCACAGGGGUUGGGUCGGGUGCAUAC (ssRNA, 2'-F pyrimidines) [SEQ ID NO:49], in the data set with midkine (full-length) [2], the activity was 69 % of SEQ 40 inhibition. Same read-out and setting: as for GGGAGAGGAGAAGAGGAAGUGUGCACAGGGGUUGUGUCGGGUGCAUAC (ssRNA, 2'-F pyrimidines) [SEQ ID NO:48], the figure is 60 % of SEQ 40 inhibition; as for GGGAGAGGAGAAGAGGAAGUGCACAGGGGUUGGUGUCGGGUGCAC (ssRNA, 2'-F pyrimidines; 5' single strand (nt 1-18) all G 2'-F and all A 2'-OMe) [SEQ ID NO:54], 100 % of SEQ 40 inhibition. Same read-out and setting: the same measure for GGGAGAGGAGAAGAGGAAGUGCACAGGGGUUGGUGUCGGGUGCAC (ssRNA, 2'-F pyrimidines) [SEQ ID NO:45]: 100 % of SEQ 40 inhibition; for GGGAGAGGAGAAGAGGAAGUGCACCCGGGUUGGUGUCGGGUGCAC (ssRNA, 2'-F pyrimidines) [SEQ ID NO:63]: 97 % of SEQ 40 inhibition.

B6: SEQ ID NO:15 (ssRNA)
RNA: GGGAGAGGAGAAGAGGAACGCUGCACGAGGAGUAGCCGGAAAGGGCGGCGUGCAGC
modifications: 2'-F pyrimidines
As for B6, in the data set with midkine (full-length) [1], the activity was 75 % of SEQ 4 inhibition. Regarding GGGUGCACAGGGGUUGGUGUCGGGUGCAC (ssRNA, 2'-F pyrimidines) [SEQ ID NO:59], the activity in the data set with midkine (full-length) [2] is 53 % of SEQ 40 inhibition.

Regarding GGGAGAGGAGAAGAGGAAGUUGCACAGGGGUUGGUGUCGGGUGCAAC (ssRNA, 2'-F pyrimidines) [SEQ ID NO:44], the activity with midkine (full-length) [2] was 100 % of SEQ 40 inhibition.

Take GGGAGAGGAGAAGAGGAAGUGCGCGCAGGGGUUGGUGUCGGGCGCGUAC (ssRNA, 2'-F pyrimidines) [SEQ ID NO:46]: the activity in the data set with midkine (full-length) [2] was 92 % of SEQ 40 inhibition. The same measure, in the same setting: the same measure for GGGAAGGAGGAAGUGCACAGGGGUUGGUGUCGGGUGCAC (ssRNA, 2'-F pyrimidines) [SEQ ID NO:61]: 100 % of SEQ 40 inhibition. For the molecule GGGAGAGGAGAAGUGCACAGGGGUUGGUGUCGGGUGCAC (ssRNA, 2'-F pyrimidines) [SEQ ID NO:62], in the data set with midkine (full-length) [2], the activity was 44 % of SEQ 40 inhibition.

B7: SEQ ID NO:68 (ssRNA)
RNA: GGGAAGGAGGAAGUGCACAGGGGUUGGAGUCGGGUGCAC
modifications: 2'-F pyrimidines; 2'-OMe on part of purines (5' strand A, stem purines, loop G, A28)
In the case of B7, in the data set with midkine (full-length) [2], the activity was 72 % of SEQ 40 inhibition.

B8: SEQ ID NO:70 (ssRNA)
RNA: GGGAAGGAGGAAGUGCACAGGGGAUGGUGUCGGGUGCAC
modifications: 2'-F pyrimidines; 2'-OMe on part of purines (5' strand A, stem purines, loop G, A24)
B8: in the data set with midkine (full-length) [2], the activity was 110 % of SEQ 40 inhibition.

B9: SEQ ID NO:69 (ssRNA)
RNA: GGGAAGGAGGAAGUGCACAGGGGUAGGUGUCGGGUGCAC
modifications: 2'-F pyrimidines; 2'-OMe on part of purines (5' strand A, stem purines, loop G, A25)
Regarding B9, the activity in the data set with midkine (full-length) [2] is 60 % of SEQ 40 inhibition.

B10: SEQ ID NO:66 (ssRNA)
RNA: GGAAGGAGGAAGUGCACAGGGGUUGGUGUCGGGUGCAC
modifications: g(F)g(F)a(M)a(M)g(F)g(F)a(M)g(F)g(F)a(M)a(M)g(M)u(F)g(M)c(F)a(M)c(F)a(M)gg(M)g(M)g(M)u(F)u(F)g(M)g(M)u(F)g(M)u(F)c(F)g(F)g(F)g(M)u(F)g(M)c(F)a(M)c(F); F=2'-F M=2'-OMe
For the molecule B10, the activity in the data set with midkine (full-length) [2] is 51 % of SEQ 40 inhibition.

B11: SEQ ID NO:67 (ssRNA)
RNA: GGAAGGAGGAAGUGCACAGGGGUUGGUGUCGGGUGCAC
modifications: gga(M)a(M)gga(M)gga(M)a(M)g(M)u(F)g(M)c(F)a(M)c(F)aggg(M)g(M)u(F)u(F)g(M)g(M)u(F)g(M)u(F)c(F)gggu(F)g(M)c(F)a(M)c(F); F=2'-F M=2'-OMe
Take B11: the activity in the data set with midkine (full-length) [2] was 110 % of SEQ 40 inhibition.

B12: SEQ ID NO:14 (ssRNA)
RNA: GGGAGAGGAGAAGAGGAACGCUACGAGGAGUAGCCGGAAAGAAGGCGGCGUAGC
modifications: 2'-F pyrimidines
For B12, in the data set with midkine (full-length) [1], the activity is 100 % of SEQ 4 inhibition.

B13: SEQ ID NO:9 (ssRNA)
RNA: GGGAGAGGAGAAGAGGAACGUGCUCUGUACGCCGGAAAGAAGGUGUGUAGAGGACAGGAAUGAGGA
modifications: 2'-F pyrimidines
On to B13, for which the activity with midkine (full-length) [1] is 57 % of SEQ 4 inhibition.

B14: SEQ ID NO:8 (ssRNA)
RNA: GGGAGAGGAGAAGAGGAACGCUGUACGAGGAGUAGCCGGAAAGAAGGCGGUGUGUAGCAGGAAUGAGGA
modifications: 2'-F pyrimidines
For B14, the activity with midkine (full-length) [1] was 100 % of SEQ 4 inhibition. On to GGGAGAGGAGGAGGAAGUGCACAGGGGUUGGUGUCGGGUGCAC (ssRNA, 2'-F pyrimidines) [SEQ ID NO:55], for which, in the data set with midkine (full-length) [2], the activity was 100 % of SEQ 40 inhibition. On the same count and under the same terms, as for GGGAAGGAAAGAGGAAGUGCACAGGGGUUGGUGUCGGGUGCAC (ssRNA, 2'-F pyrimidines) [SEQ ID NO:50], the figure is 91 % of SEQ 40 inhibition; as for GGGAGAGGAGAAGGAAGUGCACAGGGGUUGGUGUCGGGUGCAC (ssRNA, 2'-F pyrimidines) [SEQ ID NO:56], 100 % of SEQ 40 inhibition. On the same count and under the same terms, the same measure for GGGAGAGGAGAAGAGGGUGCACAGGGGUUGGUGUCGGGUGCAC (ssRNA, 2'-F pyrimidines) [SEQ ID NO:58]: 100 % of SEQ 40 inhibition; for GGGAGAGGAGAAGAAAGUGCACAGGGGUUGGUGUCGGGUGCAC (ssRNA, 2'-F pyrimidines) [SEQ ID NO:57]: 100 % of SEQ 40 inhibition.

B15: SEQ ID NO:16 (ssRNA)
RNA: GGGAGAGGAGAAGAGGAACGCUGCACGAGGGUAGCCGGAAAGAAGGCGGCGUGCAGC
modifications: 2'-F pyrimidines
As to B15, the activity with midkine (full-length) [1] is 61 % of SEQ 4 inhibition. For GGGAAGGAGUGCACAGGGGUUGGUGUCGGGUGCAC (ssRNA, 2'-F pyrimidines) [SEQ ID NO:60], in the data set with midkine (full-length) [2], the activity is 70 % of SEQ 40 inhibition.

B16: SEQ ID NO:10 (ssRNA)
RNA: GGGAGAGGAGAAGAGGAACGUGCUCUGUACGAGGAGUAGCCGAAAGGCGGUGUGUAGAGGACAGGAAUGAGGA
modifications: 2'-F pyrimidines
As to B16, in the data set with midkine (full-length) [1], the activity is 81 % of SEQ 4 inhibition.

B17: SEQ ID NO:6 (ssRNA)
RNA: GGGAGAGGAGAAGAGGAACGUGCUCUGUACGAGGAGUAGCCGGAAAGAAGGCGGUGUGUAGAGGACA
modifications: 2'-F pyrimidines
For the molecule B17, the activity with midkine (full-length) [1] was 110 % of SEQ 4 inhibition.

B18: SEQ ID NO:11 (ssRNA)
RNA: GGGAGAGGAGAAGAGGAACGUGCUCUGCACGAGGAGUAGCCGGAAAGAAGGCGGCGUGCAGAGGACAGGAAUGAGGA
modifications: 2'-F pyrimidines
B18: in the data set with midkine (full-length) [1], the activity is 100 % of SEQ 4 inhibition.

On to GGGAGAGGAACGCUACGAGGAGUAGCCGGAAAGAAGGCGGCGUAGC (ssRNA, 2'-F pyrimidines) [SEQ ID NO:17], for which, in the data set with midkine (full-length) [1], the activity was 68 % of SEQ 4 inhibition.
